To fix the notation:
T1: CD19 (human, UniProt P15391 20-556)
T1 construct: whole, on cells; also called CD19 on NALM-6 cells
T1 sequence (looked up): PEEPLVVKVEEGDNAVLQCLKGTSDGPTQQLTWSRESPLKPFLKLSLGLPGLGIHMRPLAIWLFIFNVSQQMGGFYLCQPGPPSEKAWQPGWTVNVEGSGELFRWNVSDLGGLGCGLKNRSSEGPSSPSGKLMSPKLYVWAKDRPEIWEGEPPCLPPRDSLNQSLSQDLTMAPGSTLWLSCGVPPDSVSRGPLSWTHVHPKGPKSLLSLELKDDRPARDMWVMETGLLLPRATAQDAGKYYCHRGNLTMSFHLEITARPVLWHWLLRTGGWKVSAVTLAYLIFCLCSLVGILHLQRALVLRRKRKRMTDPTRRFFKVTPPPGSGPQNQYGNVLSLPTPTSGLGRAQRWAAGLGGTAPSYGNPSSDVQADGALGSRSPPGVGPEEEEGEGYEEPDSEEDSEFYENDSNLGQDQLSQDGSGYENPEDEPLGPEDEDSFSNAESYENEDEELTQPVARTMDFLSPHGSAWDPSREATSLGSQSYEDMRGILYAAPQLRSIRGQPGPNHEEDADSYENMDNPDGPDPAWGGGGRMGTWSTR

B1: anti-CD19×anti-CD3 (VH7/VL2) (SEQ ID NO.:198) (bispecific antibody)
chain: DIQLTQSPASLAVSLGQRATISCKASQSVDYDGDSYLNWYQQIPGQPPKLLIYDASNLVSGIPPRFSGSGSGTDFTLNIHPVEKVDAATYHCQQSTEDPWTFGGGTKLEIKGGGGSGGGGSGGGGSQVQLQQSGAELVRPGSSVKISCKASGYAFSSYWMNWVKQRPGQGLEWIGQIWPGDGDTNYNGKFKGKATLTADESSSTAYMQLSSLASEDSAVYFCARRETTTVGRYYYAMDYWGQGTTVTVSSGGGGSDVQLVQSGAEVKKPGASVKVSCKASGYTFTRYTMHWVRQAPGQGLEWIGYINPSRGYTNYNQKFKDRVTITTDKSTSTAYMELSSLRSEDTAVYYCARYYDDHYCLDYWGQGTTVTVSSGEGTSTGSGGSGGSGGADDIVLTQSPATLSLSPGERATLSCRASQSVSYMNWYQQKPGKAPKRWIYDTSKVASGVPARFSGSGSGTDYSLTINSLEAEDAATYYCQQWSSNPLTFGGGTKVEIK
notes: As m4: bispecific single chain, His-tagged; all other places say VH7/VL2
B2: anti-CD19×anti-CD3 (VH7/VL3) (SEQ ID NO.:200) (bispecific antibody)
chain: B1 chain with S414T, Q419S
notes: As m4: bispecific single chain, His-tagged; also called pEF anti-CD19×anti-CD3 (VH7/VL3); anti-CD3 (VH7/VK3)
B3: anti-CD19×anti-CD3 (VH5/VL1) (SEQ ID NO.:190) (bispecific antibody)
chain: DIQLTQSPASLAVSLGQRATISCKASQSVDYDGDSYLNWYQQIPGQPPKLLIYDASNLVSGIPPRFSGSGSGTDFTLNIHPVEKVDAATYHCQQSTEDPWTFGGGTKLEIKGGGGSGGGGSGGGGSQVQLQQSGAELVRPGSSVKISCKASGYAFSSYWMNWVKQRPGQGLEWIGQIWPGDGDTNYNGKFKGKATLTADESSSTAYMQLSSLASEDSAVYFCARRETTTVGRYYYAMDYWGQGTTVTVSSGGGGSDVQLVQSGAEVKKPGASVKVSCKASGYTFTRYTMHWVRQAPGQGLEWIGYINPSRGYTNYADSVKGRFTITTDKSTSTAYMELSSLRSEDTATYYCARYYDDHYCLDYWGQGTTVTVSSGEGTSTGSGGSGGSGGADDIQMTQSPSSLSASVGDRVTITCRASQSVSYMNWYQQKPGKAPKRWIYDTSKVASGVPARFSGSGSGTDYSLTINSLEAEDAATYYCQQWSSNPLTFGGGTKVEIK
notes: As m4: bispecific single chain, His-tagged; also called pEF anti-CD19×anti-CD3 (VH5/VL1)
B4: anti-CD19×anti-CD3 (VH7/VL1) (SEQ ID NO.:196) (bispecific antibody)
chain: B3 chain with A316N, D317Q, S318K, V319F, G321D, F323V, T348V
notes: As m4: bispecific single chain, His-tagged; also called pEF anti-CD19×anti-CD3 (VH7/VL1)

The values that follow come from patent US20090022738A1 (MICROMET, published 2009).

Changes are numbered by the printed parent chain.

For the first assay, the target named is T1, CD19. Put plainly: FACS, crude supernatant on CD19-positive NALM-6 cells; negative control MFI ca. 3. On the procedure:
(§1) In order to analyze the binding efficacy of the deimmunized constructs to CD3 and CD19 a FACS-based assay was performed. Initially, crude supernatants were tested for binding on CD3-enriched PBMCs or CD19-positive NALM-6 cells. Cells were incubated with non-diluted supernatants for 30 minutes at 8° C. Upon two wash steps the cells were labeled with an anti-His antibody (Qiagen) under the same conditions. After additional wash steps binding of the constructs was detected with a FITC-conjugated sheep anti-mouse antibody (Sigma). Cells were analyzed with a FACS Calibur cytometer (B&D). As controls supernatants of anti-CD19×anti-CD3 and GFP-transfected cells were included. […] The positive control, which was a non-deimmunized anti-CD19×anti-CD3 construct reached a MFI of around 60 showing that the deimmunized constructs comprising anti-CD3 (VH5/VL1) (SEQ ID NO.:190), anti-CD3 (VH5/VL2) (SEQ ID NO.:192), anti-CD3 (VH5/VL3) (SEQ ID NO.:194), anti-CD3 (VH7/VL1) (SEQ ID NO.:196), anti-CD3 (VH7/VL2) (SEQ ID NO.:198) and anti-CD3 (VH7/VL3) (SEQ ID NO.:200) bound CD3 with extremely high efficacy.
The FACS-based binding assay was also carried out for CD19. In this experiment CD19 and a secondary antibody was as a negative control. In this experiment, all assayed constructs achieved a MFI of at least 80 while the MFI of the negative control was ca. 3.
B1 had an MFI of no less than 80 MFI.

As to B2, the MFI is no less than 80 MFI.

In the case of B3, the MFI was no less than 80 MFI.

B4 registered an MFI of no less than 80 MFI.

The target in another assay is T1, CD19. The experiment in a line: FACS, purified constructs at 1 and 5 µg/ml on CD19-positive NALM cells. On the procedure: Binding was measured by a FACS-based assay using CD3 enriched PBMCs (A) or CD19-positive NALM-cells (B). A secondary antibody with CD3 positive cells was used as a negative control in (A) and a secondary antibody with CD19 positive cells was used as a negative control in (B). Constructs anti-CD19×anti-CD3 and anti-EpCAM (M79)×anti-CD3 were used as controls. Assay was carried out with concentrations of 1 μg/ml and 5 μg/ml. MFI indicates mean fluorescence intensity.
as §1
The molecule B1 showed an MFI of roughly 200 MFI.

B2: the MFI was roughly 200 MFI.

Regarding B3, the MFI was roughly 200 MFI.

With B4, the MFI is roughly 200 MFI.

The next assay deals with T2, human CD3 (human, UniProt P07766 23-207; P04234 22-171; P09693 23-182).
T2 construct: whole, on cells; also called CD3 antigen; human CD3 complex
Put plainly: FACS, purified construct at 0.5 µg/ml as printed, on CD3 positive cells.
Consider B1, for which the MFI amounted to 25 MFI.

In turn, B2 displayed an MFI of no less than 40 MFI.

With B3, the MFI is no less than 40 MFI.

Molecule B4 showed an MFI of no less than 40 MFI.

Another assay addresses T2, human CD3. The experiment in a line: FACS, non-diluted crude supernatant on CD3-enriched PBMCs; anti-His + FITC anti-mouse. As for the experimental part:
as §1
With B1, the MFI is no less than 90 MFI and the “fold over the negative control (secondary antibody only, MFI ca. 3.5)” value (from here on “fold over the negative control”) was roughly 25 fold.

As to B2, the MFI was no less than 90 MFI and the “fold over the negative control” value is roughly 25 fold.

For B3, the MFI is no less than 90 MFI and the “fold over the negative control” value is roughly 25 fold.

For the molecule B4, the MFI was no less than 90 MFI and the “fold over the negative control” value was roughly 25 fold.
